# Data taken from the supplement of paper PMC9732359.
# ± gives the uncertainty stated by the source.
# Test: protein stability index of a GFP-peptide fusion (yeast GPS) (PSI 1-4); higher = more stable; sorted into four equal gates, so the index is relative within each strain
# How it was run: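 The protein stability index combines read frequencies across sorting gates, each weighted by its gate number and then summed. To obtain those frequencies, a pooled yeast library of GFP fusions to tiled 17-residue yeast protein peptides, on a plasmid also expressing Cherry, was grown to mid-log phase in leucine-free medium. The cells were sorted into four equal gates by GFP/Cherry ratio before plasmid amplification by PCR and Illumina sequencing.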
sequence,measurement,setting,value
MHDSNLQNNSDSESDSD [SKP1],protein stability index,doa10∆,2.94 ± 0.11
same,protein stability index,pdr5∆,3.18 ± 0.078
same,protein stability index,san1∆,3.06 ± 0.056
same,protein stability index,ubr1∆,3.02 ± 0.068
LKTLTHKQIHTTIFVKS [POP7],protein stability index,doa10∆,1.94 ± 0.036
same,protein stability index,pdr5∆,2.07 ± 0.038
same,protein stability index,san1∆,1.77 ± 0.063
same,protein stability index,ubr1∆,1.82 ± 0.029
FDTSIKLDIISDPESER [RPN14],protein stability index,doa10∆,2.7 ± 0.061
same,protein stability index,pdr5∆,2.94 ± 0.082
same,protein stability index,san1∆,2.59 ± 0.071
same,protein stability index,ubr1∆,2.9 ± 0.068
EMNLHVPQTEEARAEAI [RPO31],protein stability index,doa10∆,3.09 ± 0.1
same,protein stability index,pdr5∆,3.08 ± 0.085
same,protein stability index,san1∆,3.05 ± 0.08
same,protein stability index,ubr1∆,3.12 ± 0.045
TEDRYNEYVAKVSAREK [FAS2],protein stability index,doa10∆,3.2 ± 0.086
same,protein stability index,pdr5∆,3.14 ± 0.074
same,protein stability index,san1∆,3.04 ± 0.094
same,protein stability index,ubr1∆,3.3 ± 0.06
EERSNNLLTPQPTNFTT [MCD1],protein stability index,doa10∆,3.02 ± 0.061
same,protein stability index,pdr5∆,3.11 ± 0.063
same,protein stability index,san1∆,2.91 ± 0.061
same,protein stability index,ubr1∆,3.12 ± 0.05
GLNWLISLHENKLSGIL [ISW2],protein stability index,doa10∆,2.05 ± 0.056
same,protein stability index,pdr5∆,2.06 ± 0.062
same,protein stability index,san1∆,2.11 ± 0.082
same,protein stability index,ubr1∆,2.31 ± 0.092
KKRESGVEEEEELKDSE [SNF2],protein stability index,doa10∆,3.38 ± 0.28
same,protein stability index,san1∆,3.3 ± 0.12
GRLRNKSHKQTIVTGGG [RPP1],protein stability index,doa10∆,2.57 ± 0.093
same,protein stability index,pdr5∆,2.89 ± 0.081
same,protein stability index,san1∆,2.56 ± 0.073
same,protein stability index,ubr1∆,2.92 ± 0.074
PDRHVIFLAERRILPKP [RPS7B],protein stability index,doa10∆,2.81 ± 0.18
same,protein stability index,pdr5∆,2.75 ± 0.14
same,protein stability index,san1∆,2.99 ± 0.096
EAESQLRAAQQQWGNDF [FAS2],protein stability index,doa10∆,3.12 ± 0.072
same,protein stability index,pdr5∆,3.35 ± 0.063
same,protein stability index,san1∆,3.07 ± 0.072
same,protein stability index,ubr1∆,3.23 ± 0.044
SFHVQKKTCSSCGYPAA [RPL37A],protein stability index,doa10∆,1.85 ± 0.091
same,protein stability index,pdr5∆,2.13 ± 0.11
same,protein stability index,san1∆,1.71 ± 0.16
same,protein stability index,ubr1∆,2.06 ± 0.068
RILKLGTQLATLKNRGL [YGR119C/NUP57],protein stability index,doa10∆,2.29 ± 0.078
same,protein stability index,pdr5∆,2.57 ± 0.068
same,protein stability index,san1∆,2.65 ± 0.081
same,protein stability index,ubr1∆,2.84 ± 0.046
IGDYILKSPVLSKLCVP [QCR7],protein stability index,doa10∆,1.55 ± 0.061
same,protein stability index,pdr5∆,1.36 ± 0.078
same,protein stability index,san1∆,1.56 ± 0.11
same,protein stability index,ubr1∆,1.69 ± 0.058
DLNNAVQKRDEVKEQLG [SMC4],protein stability index,doa10∆,2.95 ± 0.055
same,protein stability index,pdr5∆,2.99 ± 0.056
same,protein stability index,san1∆,3.15 ± 0.046
same,protein stability index,ubr1∆,2.83 ± 0.042
DLNTRISVIETIRVVTE [RPN5],protein stability index,doa10∆,1.64 ± 0.15
same,protein stability index,pdr5∆,2.04 ± 0.12
same,protein stability index,ubr1∆,2.97 ± 0.15
ANVFRLENQKDLVIVDE [MTW1],protein stability index,doa10∆,3.49 ± 0.12
same,protein stability index,pdr5∆,3.36 ± 0.15
same,protein stability index,san1∆,3.4 ± 0.091
same,protein stability index,ubr1∆,3.43 ± 0.074
CDYYNTFLLNNKNIDIG [RPN2],protein stability index,doa10∆,3.14 ± 0.087
same,protein stability index,pdr5∆,3.04 ± 0.076
same,protein stability index,san1∆,2.85 ± 0.069
same,protein stability index,ubr1∆,2.79 ± 0.086
RQLANLIPFIVKQVLLS [NUT1],protein stability index,doa10∆,1.62 ± 0.032
same,protein stability index,pdr5∆,1.55 ± 0.028
same,protein stability index,san1∆,1.59 ± 0.051
same,protein stability index,ubr1∆,1.69 ± 0.033
DHEFVLISLIMTTWRKL [YMR129W/POM152],protein stability index,doa10∆,1.3 ± 0.12
same,protein stability index,pdr5∆,1.09 ± 0.075
same,protein stability index,san1∆,1.1 ± 0.14
same,protein stability index,ubr1∆,1.26 ± 0.07
EPKKPSFTFASSKTSQP [YOR098C/NUP1],protein stability index,doa10∆,2.93 ± 0.047
same,protein stability index,pdr5∆,2.88 ± 0.037
same,protein stability index,san1∆,2.9 ± 0.045
same,protein stability index,ubr1∆,3.04 ± 0.031
LDTYLPEDLNSLYIYYL [SIR2],protein stability index,doa10∆,2.8 ± 0.068
same,protein stability index,pdr5∆,2.45 ± 0.054
same,protein stability index,san1∆,2.54 ± 0.053
same,protein stability index,ubr1∆,2.63 ± 0.063
VTRGISVLKDSDDKTRQ [PRE1],protein stability index,doa10∆,3.16 ± 0.078
same,protein stability index,pdr5∆,3.28 ± 0.066
same,protein stability index,san1∆,3.18 ± 0.056
same,protein stability index,ubr1∆,3.17 ± 0.059
SIHAHGSTDVGYYLSLG [PUP1],protein stability index,doa10∆,2.62 ± 0.069
same,protein stability index,pdr5∆,2.79 ± 0.069
same,protein stability index,san1∆,2.91 ± 0.065
same,protein stability index,ubr1∆,2.24 ± 0.053
TPSSNSNSSELEPDYQA [MED1],protein stability index,doa10∆,2.74 ± 0.13
same,protein stability index,pdr5∆,2.96 ± 0.16
same,protein stability index,san1∆,3.35 ± 0.055
same,protein stability index,ubr1∆,3.43 ± 0.1
VNAITVAQQQVQRQIEQ [SNF5],protein stability index,pdr5∆,3.14 ± 0.2
same,protein stability index,ubr1∆,3 ± 0.17
GSLSGNSSSMEEVMRIA [ESC2],protein stability index,doa10∆,2.9 ± 0.074
same,protein stability index,pdr5∆,2.88 ± 0.11
same,protein stability index,san1∆,2.45 ± 0.12
same,protein stability index,ubr1∆,2.73 ± 0.083
RQTLAPYAVLSQFYELR [YJR042W/NUP85],protein stability index,doa10∆,1.98 ± 0.12
same,protein stability index,pdr5∆,2.75 ± 0.24
same,protein stability index,san1∆,2.42 ± 0.16
same,protein stability index,ubr1∆,2.35 ± 0.09
QVSINSNKILVYESEME [YIL149C/MLP2],protein stability index,doa10∆,2.3 ± 0.11
same,protein stability index,pdr5∆,3 ± 0.16
same,protein stability index,san1∆,1.71 ± 0.21
same,protein stability index,ubr1∆,2.92 ± 0.16
GKTNIALLTVLKALSHH [BRR2],protein stability index,doa10∆,2.19 ± 0.058
same,protein stability index,pdr5∆,1.54 ± 0.05
same,protein stability index,san1∆,2.14 ± 0.069
same,protein stability index,ubr1∆,2 ± 0.057
HKVQTKLTRELEKKFQD [RPS7A],protein stability index,doa10∆,2.43 ± 0.066
same,protein stability index,pdr5∆,2.01 ± 0.06
same,protein stability index,san1∆,2.37 ± 0.091
same,protein stability index,ubr1∆,2.54 ± 0.048
QFTLYDRELNEVINQME [SMC3],protein stability index,doa10∆,3.01 ± 0.095
same,protein stability index,pdr5∆,3.09 ± 0.091
same,protein stability index,san1∆,2.94 ± 0.13
same,protein stability index,ubr1∆,3.08 ± 0.046
HYLVLLVAKFLYPIFLL [YJR042W/NUP85],protein stability index,doa10∆,1.4 ± 0.035
same,protein stability index,pdr5∆,1.22 ± 0.032
same,protein stability index,san1∆,1.11 ± 0.071
same,protein stability index,ubr1∆,1.13 ± 0.026
VSYMMPSLYRLLNILIT [SRB8],protein stability index,doa10∆,1.22 ± 0.12
same,protein stability index,pdr5∆,1.21 ± 0.07
same,protein stability index,san1∆,1.1 ± 0.12
same,protein stability index,ubr1∆,1.3 ± 0.057
QMSDKHATVVPPEEFSN [SRB7],protein stability index,doa10∆,2.98 ± 0.05
same,protein stability index,pdr5∆,2.88 ± 0.056
same,protein stability index,san1∆,2.71 ± 0.059
same,protein stability index,ubr1∆,2.86 ± 0.047
DYITEAVFKIVLQPLLP [SNU114],protein stability index,doa10∆,1.44 ± 0.043
same,protein stability index,pdr5∆,1.31 ± 0.066
same,protein stability index,san1∆,1.38 ± 0.089
same,protein stability index,ubr1∆,1.51 ± 0.055
KTKAMVPPINCIFNFLQ [SME1],protein stability index,doa10∆,1.65 ± 0.042
same,protein stability index,pdr5∆,1.65 ± 0.037
same,protein stability index,san1∆,1.97 ± 0.07
same,protein stability index,ubr1∆,2.12 ± 0.036
KNEPDYSKAKYPDLQPF [CDC53],protein stability index,doa10∆,2.35 ± 0.086
same,protein stability index,pdr5∆,2.58 ± 0.089
same,protein stability index,san1∆,2.06 ± 0.13
same,protein stability index,ubr1∆,2.5 ± 0.085
EELKNMFLYILKHLEEM [RRI2],protein stability index,doa10∆,2.25 ± 0.16
same,protein stability index,pdr5∆,1.93 ± 0.11
same,protein stability index,san1∆,1.32 ± 0.11
same,protein stability index,ubr1∆,1.73 ± 0.097
KIALMNIPKPLNSYHIK [RGR1],protein stability index,doa10∆,1.65 ± 0.033
same,protein stability index,pdr5∆,1.81 ± 0.028
same,protein stability index,san1∆,1.69 ± 0.041
same,protein stability index,ubr1∆,1.83 ± 0.022
VPLAMGIVSVSDPQMKV [RPN1],protein stability index,doa10∆,1.39 ± 0.041
same,protein stability index,pdr5∆,1.63 ± 0.054
same,protein stability index,san1∆,1.43 ± 0.1
same,protein stability index,ubr1∆,1.51 ± 0.051
DTAGEESQQQDESLKDE [SWI3],protein stability index,doa10∆,3.36 ± 0.2
same,protein stability index,san1∆,3.13 ± 0.16
same,protein stability index,ubr1∆,3.61 ± 0.29
LQDDEDHKFPIRENKVT [BRN1],protein stability index,doa10∆,2.7 ± 0.1
same,protein stability index,pdr5∆,3.07 ± 0.083
same,protein stability index,san1∆,2.75 ± 0.074
same,protein stability index,ubr1∆,2.38 ± 0.095
VRNVKGPVRENDILVLM [RPS28A],protein stability index,doa10∆,3.24 ± 0.11
same,protein stability index,pdr5∆,3.04 ± 0.1
same,protein stability index,san1∆,3.5 ± 0.13
same,protein stability index,ubr1∆,2.98 ± 0.074
KDKGVYVVTSDEHPKTL [SIR2],protein stability index,doa10∆,2.78 ± 0.076
same,protein stability index,pdr5∆,3.24 ± 0.075
same,protein stability index,san1∆,3.25 ± 0.055
same,protein stability index,ubr1∆,2.98 ± 0.079
ERGGKFHESGSQYSTMV [RGR1],protein stability index,doa10∆,3.36 ± 0.12
same,protein stability index,pdr5∆,3.45 ± 0.12
same,protein stability index,san1∆,3.44 ± 0.25
same,protein stability index,ubr1∆,3.3 ± 0.14
FVAKLAAQIFGSYNAFE [COR1],protein stability index,doa10∆,1.68 ± 0.043
same,protein stability index,pdr5∆,1.74 ± 0.048
same,protein stability index,san1∆,1.63 ± 0.081
same,protein stability index,ubr1∆,2.13 ± 0.046
PFTDITVEGISKLLREH [RPB2],protein stability index,doa10∆,2.27 ± 0.076
same,protein stability index,pdr5∆,2.4 ± 0.079
same,protein stability index,san1∆,2.51 ± 0.077
same,protein stability index,ubr1∆,2.42 ± 0.067
GGGYFSAAGMTAAIDSV [FAS1],protein stability index,doa10∆,3.11 ± 0.15
same,protein stability index,pdr5∆,3.23 ± 0.11
same,protein stability index,san1∆,3 ± 0.24
same,protein stability index,ubr1∆,3.07 ± 0.15
KGAGLSMGTMICGYTRK [PRE2],protein stability index,doa10∆,1.64 ± 0.16
same,protein stability index,pdr5∆,1.27 ± 0.17
same,protein stability index,ubr1∆,1.11 ± 0.17
DPALLRPGRIDRKIEFP [RPT6],protein stability index,doa10∆,3.18 ± 0.075
same,protein stability index,pdr5∆,3.32 ± 0.077
same,protein stability index,san1∆,3.05 ± 0.057
same,protein stability index,ubr1∆,3.26 ± 0.048
YHQLLSDIESLEALMDI [SRB8],protein stability index,doa10∆,2.9 ± 0.13
same,protein stability index,pdr5∆,2.84 ± 0.19
same,protein stability index,ubr1∆,2.25 ± 0.2
